Reference: patent US20240270821A1, “GIP/GLP1/GCG TRI-RECEPTOR AGONISTS AND USES THEREOF” (priority 2023, published 2024)

Key:
Assay in all cases: cell-based or functional assay
[1] = target: hGLP-1R (Homo sapiens, UniProt P43220)
[2] = target: T1, human GIP receptor (human) (UniProt P48546)
T1 sequence (looked up): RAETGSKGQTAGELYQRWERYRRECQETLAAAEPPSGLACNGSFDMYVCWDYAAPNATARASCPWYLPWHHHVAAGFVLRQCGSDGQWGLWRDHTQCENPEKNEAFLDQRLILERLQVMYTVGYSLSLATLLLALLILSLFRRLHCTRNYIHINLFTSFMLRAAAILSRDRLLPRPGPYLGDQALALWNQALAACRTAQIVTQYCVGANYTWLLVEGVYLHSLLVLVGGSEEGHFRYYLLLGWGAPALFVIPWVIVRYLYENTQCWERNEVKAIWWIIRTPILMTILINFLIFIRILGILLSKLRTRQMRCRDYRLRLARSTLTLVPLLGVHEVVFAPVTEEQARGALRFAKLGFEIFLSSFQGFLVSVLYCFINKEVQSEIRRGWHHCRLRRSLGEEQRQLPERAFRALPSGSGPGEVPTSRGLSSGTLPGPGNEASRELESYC

[3] = target: human glucagon receptor (human) (UniProt P47871)
Sequence of human glucagon receptor (human) (P47871 26-477): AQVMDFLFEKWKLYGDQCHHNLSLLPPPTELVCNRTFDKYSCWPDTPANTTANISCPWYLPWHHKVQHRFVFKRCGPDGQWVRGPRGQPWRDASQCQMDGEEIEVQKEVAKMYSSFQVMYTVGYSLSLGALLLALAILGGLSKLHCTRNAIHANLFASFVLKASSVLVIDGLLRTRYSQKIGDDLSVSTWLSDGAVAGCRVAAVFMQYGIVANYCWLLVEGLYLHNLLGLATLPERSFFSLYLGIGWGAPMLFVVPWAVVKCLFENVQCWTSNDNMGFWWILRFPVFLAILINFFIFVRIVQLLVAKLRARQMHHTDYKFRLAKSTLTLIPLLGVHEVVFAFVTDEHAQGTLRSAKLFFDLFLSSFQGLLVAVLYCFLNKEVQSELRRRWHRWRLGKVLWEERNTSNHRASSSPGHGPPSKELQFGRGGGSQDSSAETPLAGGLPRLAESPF

Sequence of hGLP-1R (P43220 24-463): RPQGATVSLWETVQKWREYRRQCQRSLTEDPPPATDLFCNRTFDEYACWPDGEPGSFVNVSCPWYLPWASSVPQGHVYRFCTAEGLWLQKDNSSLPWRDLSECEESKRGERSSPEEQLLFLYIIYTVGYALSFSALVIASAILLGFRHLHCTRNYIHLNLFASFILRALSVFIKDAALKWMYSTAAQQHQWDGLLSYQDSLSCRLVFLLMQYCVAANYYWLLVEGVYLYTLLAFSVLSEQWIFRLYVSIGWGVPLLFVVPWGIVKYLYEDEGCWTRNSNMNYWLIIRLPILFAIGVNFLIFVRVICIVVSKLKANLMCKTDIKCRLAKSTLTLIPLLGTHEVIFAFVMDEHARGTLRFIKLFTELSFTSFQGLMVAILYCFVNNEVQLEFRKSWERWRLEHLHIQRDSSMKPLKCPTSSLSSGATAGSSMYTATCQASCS

B1: Example 1008 (peptide)
chain: YXQGTFTSDXSQXLDXKAQXAFIEYLIAGGPSSGEPPPSGSE
modifications: synthetic construct; SITE 2: note = 2-Aminoisobutyric Acid; SITE 10: note = 3-(4-Pyridyl)-L-alanine; SITE 13: note = alpha-methyl-leucine; SITE 16: note = L-ornithine; SITE 17: note = Lysine is chemically modified through conjugation of the epsilon-amino group of the Lysine side chain with (gamma-Gl)
Which Relative cAMP EC50 [1] does the source give for B1 here?
Its Relative cAMP EC50 is 1.09 nM.

What about the cAMP Rel EC50, nM (1% HSA) [1] of the same binder?
The cAMP Rel EC50, nM (1% HSA) was 126 nM.

What about the Relative cAMP EC50 [2] of the same binder?
Its Relative cAMP EC50 is 0.14 nM.

What about the cAMP Rel EC50, nM (1% HSA) [2] of the same binder?
Its cAMP Rel EC50, nM (1% HSA) is 15.2 nM.

What about the Relative cAMP EC50 [3] of the same binder?
The Relative cAMP EC50 was 7.47 nM.

What about the cAMP Rel EC50, nM (1% HSA) [3] of the same binder?
The cAMP Rel EC50, nM (1% HSA) was 1010 nM.

B2: Example 1024 (peptide)
chain: YXQGTFTSDXSQXLDKKAQXAFIEYLIEAGPSSGAPPPSGSE
modifications: Aib, 4Pal, αMeL, Me4Pal; K acylated AEEA-(γGlu)2-C18 diacid; amide; synthetic construct; SITE 2: note = 2-Aminoisobutyric Acid; SITE 10: note = 3-(4-Pyridyl)-L-alanine; SITE 13: note = alpha-methyl-leucine; SITE 17: note = Lysine is chemically modified through conjugation of the epsilon-amino group of the Lysine side chain with (2-[2-(2-Amino-ethoxy)-ethoxy]-acetyl)
Which results are given for B2?
cAMP Rel EC50, nM (1% HSA) [1]: 330 nM; cAMP Rel EC50, nM (1% HSA) [2]: 32.5 nM; cAMP Rel EC50, nM (1% HSA) [3]: 760 nM

B3: Example 1010 (peptide)
chain: YXQGTFTSDXSXXLDKKAQXAFIEYLIAGGPSSGAPPPSESE
modifications: not fully specified; synthetic construct; SITE 2: note = 2-Aminoisobutyric Acid; SITE 10: note = 3-(4-Pyridyl)-L-alanine; SITE 12: note = L-ornithine; SITE 13: note = alpha-methyl-leucine; SITE 17: note = Lysine is chemically modified through conjugation of the epsilon-amino group of the Lysine side chain with (gamma-Gl)
For B3, which Relative cAMP EC50 [1] is on record?
Its Relative cAMP EC50 is 2.89 nM.

And the cAMP Rel EC50, nM (1% HSA) [1]?
Its cAMP Rel EC50, nM (1% HSA) is 218 nM.

And the Relative cAMP EC50 [2]?
The Relative cAMP EC50 was 0.159 nM.

What about the cAMP Rel EC50, nM (1% HSA) [2] of the same binder?
Its cAMP Rel EC50, nM (1% HSA) is 15.1 nM.

And the Relative cAMP EC50 [3]?
The Relative cAMP EC50 was 4.5 nM.

What about the cAMP Rel EC50, nM (1% HSA) [3] of the same binder?
The cAMP Rel EC50, nM (1% HSA) was 214 nM.

B4: Example 1023 (peptide)
chain: YXQGTFTSDXSQXLDXKAQXAFIEYLIEAGPSSGAPPPSGSE
modifications: not fully specified; acylated lysine (γGlu)2-C18 diacid; non-natural residues; C-terminal amide; synthetic construct; SITE 2: note = 2-Aminoisobutyric Acid; SITE 10: note = 3-(4-Pyridyl)-L-alanine; SITE 13: note = alpha-methyl-leucine; SITE 16: note = L-ornithine; SITE 17: note = Lysine is chemically modified through conjugation of the epsilon-amino group of the Lysine side chain with (gamma-Gl)
With B4 as the binder, how does the cAMP Rel EC50, nM (1% HSA) [1] read?
The cAMP Rel EC50, nM (1% HSA) was 230 nM.

What about the cAMP Rel EC50, nM (1% HSA) [2] of the same binder?
Its cAMP Rel EC50, nM (1% HSA) is 26 nM.

And the cAMP Rel EC50, nM (1% HSA) [3]?
The cAMP Rel EC50, nM (1% HSA) was 856 nM.

B5: Example 1012 (peptide)
chain: YXQGTFTSDXSXXLDXKAQXAFIEYLIAGGPSSGAPPPSESE
modifications: Aib, 4Pal, Orn, αMeL, Me4Pal; K (γGlu)2-C18 diacid; amide; synthetic construct; SITE 2: note = 2-Aminoisobutyric Acid; SITE 10: note = 3-(4-Pyridyl)-L-alanine; SITE 12: note = L-ornithine; SITE 13: note = alpha-methyl-leucine; SITE 16: note = L-ornithine; SITE 17: note = Lysine is chemically modified through conjugation of the epsilon-amino group of the Lys
For B5, which cAMP Rel EC50, nM (1% HSA) [1] is on record?
Its cAMP Rel EC50, nM (1% HSA) is 223 nM.

What about the cAMP Rel EC50, nM (1% HSA) [2] of the same binder?
Its cAMP Rel EC50, nM (1% HSA) is 15.9 nM.

What about the cAMP Rel EC50, nM (1% HSA) [3] of the same binder?
Its cAMP Rel EC50, nM (1% HSA) is 533 nM.

B6: Example 1011 (peptide)
chain: YXQGTFTSDXSXXLDXKAQXAFIEYLIAGGPSSGAPPPSGSE
modifications: non-natural residues; Lys acylated C18 diacid; C-terminal amide; synthetic construct; SITE 2: note = 2-Aminoisobutyric Acid; SITE 10: note = 3-(4-Pyridyl)-L-alanine; SITE 12: note = L-ornithine; SITE 13: note = alpha-methyl-leucine; SITE 16: note = L-ornithine; SITE 17: note = Lysine is chemically modified through conjugation of the epsilon-amino group of the Lys
B6 was tested. Which cAMP Rel EC50, nM (1% HSA) [1] did it give?
Its cAMP Rel EC50, nM (1% HSA) is 148 nM.

What about the cAMP Rel EC50, nM (1% HSA) [2] of the same binder?
The cAMP Rel EC50, nM (1% HSA) was 13.5 nM.

And the cAMP Rel EC50, nM (1% HSA) [3]?
Its cAMP Rel EC50, nM (1% HSA) is 459 nM.

B7: Example 1009 (peptide)
chain: YXQGTFTSDXSXXLDKKAQXAFIEYLIAGGPSSGAPPPSGSE
modifications: synthetic construct; SITE 2: note = 2-Aminoisobutyric Acid; SITE 10: note = 3-(4-Pyridyl)-L-alanine; SITE 12: note = L-ornithine; SITE 13: note = alpha-methyl-leucine; SITE 17: note = Lysine is chemically modified through conjugation of the epsilon-amino group of the Lysine side chain with (gamma-Gl)
Which results are given for B7?
Relative cAMP EC50 [1]: 2.1 nM; cAMP Rel EC50, nM (1% HSA) [1]: 174 nM; Relative cAMP EC50 [2]: 0.13 nM; cAMP Rel EC50, nM (1% HSA) [2]: 9.72 nM; Relative cAMP EC50 [3]: 4.21 nM; cAMP Rel EC50, nM (1% HSA) [3]: 268 nM

B8: Example 1022 (peptide)
chain: YXQGTFTSDXSQXLDXKAQXAFIEYLIEAGPSSGAPPPSGSE
modifications: not fully specified; Aib, 4Pal, αMeL, Orn, Me4Pal, acylated K, C-terminal amide; synthetic construct; SITE 2: note = 2-Aminoisobutyric Acid; SITE 10: note = 3-(4-Pyridyl)-L-alanine; SITE 13: note = alpha-methyl-leucine; SITE 16: note = L-ornithine; SITE 17: note = Lysine is chemically modified through conjugation of the epsilon-amino group of the Lysine side chain with (2-[2-(2-
B8 was tested. Which cAMP Rel EC50, nM (1% HSA) [1] did it give?
The cAMP Rel EC50, nM (1% HSA) was 203 nM.

What about the cAMP Rel EC50, nM (1% HSA) [2] of the same binder?
Its cAMP Rel EC50, nM (1% HSA) is 27.9 nM.

And the cAMP Rel EC50, nM (1% HSA) [3]?
The cAMP Rel EC50, nM (1% HSA) was 586 nM.

B9: Example 96 (peptide)
chain: YXQGTFTSDFSXXLDKKAQXQFIEYLLAGGPSSGAPPPEGS
modifications: synthetic construct; SITE 2: note = 2-Aminoisobutyric Acid; SITE 12: note = L-ornithine; SITE 13: note = alpha-methyl-leucine; SITE 17: note = Lysine is chemically modified through conjugation of the epsilon-amino group of the Lysine side chain with (2-[2-(2-Amino-ethoxy)-ethoxy]-acetyl)-(gamma-Glu)
Which results are given for B9?
Relative cAMP EC50 [1]: 3.92 nM; cAMP Rel EC50, nM (in the presence of 1% HSA) [1]: 836 nM; Relative cAMP EC50 [2]: 0.456 nM; cAMP Rel EC50, nM (in the presence of 1% HSA) [2]: 49.3 nM; Relative cAMP EC50 [3]: 14.1 nM; cAMP Rel EC50, nM (in the presence of 1% HSA) [3]: 2150 nM

B10: Example 1015 (peptide)
chain: YXQGTFTSDXSXXLDKKAQXAFIEXLIAGGPSSGAPPPEGS
modifications: non-natural residues (Aib, 4Pal, Orn, Me4Pal, αMeY); lipidated K; amide; synthetic construct; SITE 2: note = 2-Aminoisobutyric Acid; SITE 10: note = 3-(4-Pyridyl)-L-alanine; SITE 12: note = L-ornithine; SITE 13: note = alpha-methyl-leucine; SITE 17: note = Lysine is chemically modified through conjugation of the epsilon-amino group of the Lysine side chain with (gamma-Gl)
With B10 as the binder, how does the cAMP Rel EC50, nM (1% HSA) [1] read?
The cAMP Rel EC50, nM (1% HSA) was 92.4 nM.

What about the cAMP Rel EC50, nM (1% HSA) [2] of the same binder?
Its cAMP Rel EC50, nM (1% HSA) is 9.08 nM.

What about the cAMP Rel EC50, nM (1% HSA) [3] of the same binder?
Its cAMP Rel EC50, nM (1% HSA) is 357 nM.

B11: Example 1007 (peptide)
chain: YXQGTFTSDXSQXLDXKAQXAFIEYLIAGGPSSGEPPPSGS
modifications: not fully specified; synthetic construct; SITE 2: note = 2-Aminoisobutyric Acid; SITE 10: note = 3-(4-Pyridyl)-L-alanine; SITE 13: note = alpha-methyl-leucine; SITE 16: note = L-ornithine; SITE 17: note = Lysine is chemically modified through conjugation of the epsilon-amino group of the Lysine side chain with (gamma-Gl)
For B11, which Relative cAMP EC50 [1] is on record?
The Relative cAMP EC50 was 0.668 nM.

What about the cAMP Rel EC50, nM (1% HSA) [1] of the same binder?
The cAMP Rel EC50, nM (1% HSA) was 95.1 nM.

And the Relative cAMP EC50 [2]?
The Relative cAMP EC50 was 0.116 nM.

And the cAMP Rel EC50, nM (1% HSA) [2]?
The cAMP Rel EC50, nM (1% HSA) was 12 nM.

What about the Relative cAMP EC50 [3] of the same binder?
The Relative cAMP EC50 was 5.34 nM.

And the cAMP Rel EC50, nM (1% HSA) [3]?
Its cAMP Rel EC50, nM (1% HSA) is 636 nM.

B12: Example 1014 (peptide)
chain: YXQGTFTSDXSXXLDKKAQXAFIEXLIAGGPSSGEPPPSGS
modifications: Aib, 4Pal, Orn, αMeL, Me4Pal, αMeY; γGlu2-C18 diacid Lys; amide; synthetic construct; SITE 2: note = 2-Aminoisobutyric Acid; SITE 10: note = 3-(4-Pyridyl)-L-alanine; SITE 12: note = L-ornithine; SITE 13: note = alpha-methyl-leucine; SITE 17: note = Lysine is chemically modified through conjugation of the epsilon-amino group of the Lysine side chain with (gamma-Gl)
Which Relative cAMP EC50 [1] does the source give for B12 here?
Its Relative cAMP EC50 is 0.718 nM.

And the cAMP Rel EC50, nM (1% HSA) [1]?
The cAMP Rel EC50, nM (1% HSA) was 86.4 nM.

What about the Relative cAMP EC50 [2] of the same binder?
The Relative cAMP EC50 was 0.0412 nM.

And the cAMP Rel EC50, nM (1% HSA) [2]?
The cAMP Rel EC50, nM (1% HSA) was 5.62 nM.

What about the Relative cAMP EC50 [3] of the same binder?
Its Relative cAMP EC50 is 3.62 nM.

What about the cAMP Rel EC50, nM (1% HSA) [3] of the same binder?
Its cAMP Rel EC50, nM (1% HSA) is 277 nM.
